The values below are quoted from earlier work in paper PMC11750407.

The target of this data set is coagulation factor Xa (Homo sapiens) (UniProt P00742).
Chain of UniProt P00742 (P00742 41-179, chain 1 of 2): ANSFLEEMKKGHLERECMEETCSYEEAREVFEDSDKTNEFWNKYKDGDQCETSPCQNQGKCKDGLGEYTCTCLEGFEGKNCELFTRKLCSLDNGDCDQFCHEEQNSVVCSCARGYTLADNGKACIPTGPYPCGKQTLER
Chain of UniProt P00742 (P00742 235-488, chain 2 of 2): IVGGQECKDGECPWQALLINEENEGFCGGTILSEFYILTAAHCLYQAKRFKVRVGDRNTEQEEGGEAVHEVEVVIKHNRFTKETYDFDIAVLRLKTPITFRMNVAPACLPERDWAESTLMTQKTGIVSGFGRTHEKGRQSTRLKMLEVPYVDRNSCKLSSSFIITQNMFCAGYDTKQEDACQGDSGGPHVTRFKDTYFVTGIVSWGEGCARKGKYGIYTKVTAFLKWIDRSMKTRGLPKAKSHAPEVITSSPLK

As a reminder, the Kd is the concentration at which binding is half-saturated. Consider “coagulation factor Va (from UniProt P12259)”, for which the Kd was 1 µM.
